Test results as given in US8846363B2, “Compositions of and methods of using sulfatases from Flavobacterium heparinum” (priority 2007, dated 2014).
Each block holds one molecule with its values, some of them ahead of it.

What was measured:
Type in all cases: biochemical
[1] = Coupled 6-O-sulfatase/β-glucosidase fluorimetric plate assay (reaction conditions, steady-state kinetics)
Description: (§1) Indirect measurement of enzyme activity was also made using a fluorimetrically-based plate assay in which the prerequisite desulfation of the appropriate glucopyranoside 1→4 methlybelliferone substrate by either the 6-O-sulfatase or N-sulfamidase was coupled to the glucosidase-mediated hydrolysis of the stereo-specific 1→4 glycosidic linkage between the pyranose ring and the adjoining fluorophore. Release of the free fluorophore (4-MU) was monitored spectroscopically as described above for the arylsulfatase assay using 4-MU sulfate. The two sulfatase assays differed in the choice of substrate in accordance to their specificity as well as the glucosidase added during the second, […] step. For the 6-O-sulfatase, the hydrolysis of the substrate 4-MU-β-D-GlcNAc,6S at the 6-OH position was coupled to β-glucosidase purified from sweet almonds (MP Biomedicals, Solon, Ohio, Catalog No. 195197). Likewise, N-sulfamidase hydrolysis of 4-MU-α-D-GlcNS at the 2-amino position was coupled to α-glucosidase (MP Biomedicals, Catalog No. 153487). […] The presumption of the first (sulfatase) activity being the rate-limiting step was established experimentally. Reaction conditions were optimized to satisfy three related criteria: 1) linear readout of fluorescent signal which is directly proportional to sulfatase activity; 2) quantitative release of 4-MU by glucosidase activity under every biochemical condition examined and; 3) negligible fluorescent quenching of the free chromophore.
For the 6-O-sulfatase/β-glucosidase assay, the standard reaction conditions included 2 μM recombinant enzyme, 50 mM sodium acetate buffer, pH 5.5, and 5 mM CaCl2 in a 20 μl reaction volume. 4-MU-GlcNAc,6S substrate concentration was varied from 0.1-2 mM. 2 μL of enzyme were added to each well of a microtiter plate (prechilled on ice), plate gently vortexed, and contents of each well spun down for 1 minute at 500×g, 4° C. […] Reactions were transferred to a black 96 well, flat-bottom FIA-plate and fluorescence measured as described above for the detection of free 4-MU. […]

[2] = Effect of pH on 6-O-sulfatase activity by capillary electrophoresis
Procedure: Initial assessment of substrate specificity and pH optima was made using a capillary electrophoresis-based assay for the detection of desulfated products. Preliminary enzyme activity was measured against the following series of fluorescently derivatized, monosulfated gluco and galactopyranosides: 4-MU-GlcNAc,6S, 4-MU-GlcNS, 4-MU-GalNAc,6S and 4-MU-Gal6S. Standard reactions included 1 mM substrate, 1-10 μM enzyme, 50 mM sodium acetate, pH 5.5-6.5 and 5 mM CaCl2 in a 20 μL reaction volume. For pilot experiments, exhaustive reactions involved overnight incubations at 30° C. Enzyme was inactivated by heat denaturation at 95° C. for 10 minutes, followed by a 10-fold dilution into water. Reaction products were resolved by capillary electrophoresis using a 25 cm long, 75 μm (i.d.) fused silica capillary (Agilent Technologies, Palo Alto, Calif.). […] Substrate desulfation was measured as a percentage of substrate depletion relative to a minus enzyme control as monitored by the loss of UV absorbance at 315 nm detected at approximately 4 minutes. […]
The effect of pH was likewise measured by capillary electrophoresis using the following three sets of buffers with overlapping pH ranging from 4.5 to 8.0:50 mM sodium citrate at 4.5, 5.0, and 5.5; 50 mM MES at 5.5, 6.0, 6.5 and 7.0; and 50 mM MOPS at 6.5, 7.0, 7.5, and 8.0. […]

[3] = Effect of pH on N-sulfamidase activity by capillary electrophoresis
Procedure: Initial assessment of substrate specificity and pH optima was made using a capillary electrophoresis-based assay for the detection of desulfated products. Preliminary enzyme activity was measured against the following series of fluorescently derivatized, monosulfated gluco and galactopyranosides: 4-MU-GlcNAc,6S, 4-MU-GlcNS, 4-MU-GalNAc,6S and 4-MU-Gal6S. Standard reactions included 1 mM substrate, 1-10 μM enzyme, 50 mM sodium acetate, pH 5.5-6.5 and 5 mM CaCl2 in a 20 μL reaction volume. For pilot experiments, exhaustive reactions involved overnight incubations at 30° C. Enzyme was inactivated by heat denaturation at 95° C. for 10 minutes, followed by a 10-fold dilution into water. Reaction products were resolved by capillary electrophoresis using a 25 cm long, 75 μm (i.d.) fused silica capillary (Agilent Technologies, Palo Alto, Calif.). Electrophoresis was carried out under negative polarity by applying a voltage of −15 kV (˜1.2 W) for 10 minutes. Substrate desulfation was measured as a percentage of substrate depletion relative to a minus enzyme control as monitored by the loss of UV absorbance at 315 nm detected at approximately 4 minutes. A standard capillary electrophoresis buffer included 50 mM Tris and 10 μM dextran sulfate (average MW of 10,000 Da) adjusted to pH 2.0 with phosphoric acid. At this pH, saccharide migration occurred on the basis of charge without the influence of electro-osmotic flow.
The effect of pH was likewise measured by capillary electrophoresis using the following three sets of buffers with overlapping pH ranging from 4.5 to 8.0:50 mM sodium citrate at 4.5, 5.0, and 5.5; 50 mM MES at 5.5, 6.0, 6.5 and 7.0; and 50 mM MOPS at 6.5, 7.0, 7.5, and 8.0. Reactions included 1 μM enzyme, 2 mM 4-MU-GlcNAc,6S (for 6-O-sulfatase) or 4-MU-GlcNS (for N-sulfamidase), 50 mM buffer and 5 mM CaCl2 in a 20 μL reaction volume. Assay was initiated by the addition of 2 μl of a 10× enzyme stock to 18 μL of preheated reaction mixture. […]

[4] = Coupled N-sulfamidase/α-glucosidase fluorimetric plate assay (reaction conditions, steady-state kinetics)
Description: as §1
Coupled N-sulfamidase assay was generally described for the 6-O-sulfatase, but with the following modifications: 4-MU-GlcNS as substrate, 50 mM sodium acetate at pH 6.0 (instead of 5.5) and 1 μM enzyme. For the second enzyme step, 5 units of α-glucosidase were added. Enzyme incubation was carried out for 22 hours at 37° C. The obvious difference in enzyme efficacies between α-glucosidase versus β-glucosidase is reflected in the substantially longer incubation times required for the α-glucosidase to quantitatively hydrolyze the glycosidic α1→4 linkage between the fluorophore and the desulfated glucosamine. […]

effect of Mg^+2 or Mn^+2 on activity ([1]; 1 mM or 5 mM divalent metal): only negligible effects
activation by the presence of calcium ([1]; calcium added): 2-3 fold
activity below pH 4.5 ([2]; below pH 4.5): Neither enzyme was active
activity in acetate buffer compared to sulfonate buffers (MES, MOPS) ([2]; same pH range): higher activity in acetate buffer
B1: Flavobacterium heparinum 6-O-sulfatase (ORF B), recombinant, NH2-terminal truncation lacking signal sequence, SEQ ID NO: 2 (Pedobacter heparinus DSM 2366) (protein)
chain: TLMSCQQPKPAESAKRPNIVFIMTDDHTIQAISAYGSKLVKTPNLDRIANEGMLFNNCFVTNAVCGPSRATILTGKYSHLNGLTDNSKVFDSTQVIYPQLLKKAGYQTAMIGKWHLGSTPMGFDYYSILPNQGQYYQPEFIENGHLVKEKGYVTDLITDKAIGFLEKRDHDKPFLMIYQHKAPHRNWLPAPRHLGMFDDTVFPEPANLLDDFKGRGRAAKEQLMNISTDMWPAWDLKMLSTAQLDSMAKLPVSPKFKDAKGDDYQQANDPSLDKARFFEVYNRMTDAEKVQWRKVYDKRVAEFKRLNPKGADLVRWKYQQYMRDYLACVVSVDENVGRLMDYLKKIGELDNTIIVYTSDQGFYLGEHGYFDKRFMYDESFRTPLMVRYPPSVKAGSVSNAFAMNLDFAPTLLDYAGVKIPADMQGLSLRPVLDNAGKSPENWRKAVYYHYYEFPSWHMVKRHYGIRTERYKLIHFYNDIDEWELYDMQKDPHEMQNLYNDKAYEPIIKDLKVQMKKLQVQYKDTNPTEAL
notes: E. coli BL21(DE3), N-terminal 6xHis removed by thrombin
activity remaining relative to the zero NaCl control ([1]; 1 M NaCl): less than 20%

activity below pH 4.5 ([3]; below pH 4.5): Neither enzyme was active
activity in acetate buffer compared to sulfonate buffers (MES, MOPS) ([3]; same pH range): higher activity in acetate buffer
calcium requirement for activity [4]: required calcium for activity
effect of Mg^+2 or Mn^+2 on activity ([4]; 1 mM or 5 mM divalent metal): only negligible effects
B2: Flavobacterium heparinum N-sulfamidase (ORF C), recombinant, NH2-terminal truncation lacking signal sequence, SEQ ID NO: 4 (Pedobacter heparinus DSM 2366) (protein)
chain: SCTSPEKKTDRPNILMIMSDNQSWNHVGSYGDQTVRTPNMDRIAKEGVRFTNAFCSSPSCTPARAGMLTGQDIWRLEDGGNLWGVLPVKYKVYPDLLEEAGYAIGFQGKGWGPGSFEANKRPRNPAGNEFKSFGAFLKDKKEGPWCYWISSHEPHRPYVEGSGEKAGIDPNKVKVPAYLPDHISIRKDIADYYAAVETFDRELGEALDQLKASGELDNTVIVVCSDNGWQMPRGLANLYDFGTHVPLIISWPGKFKQDVVADNLVTLNDLAPTFLQLGKVPVPADMTGKSLLPIVEAGKKDEKPRDYVVLGRERHAFVRRHGLGYPGRAIRTKDYLYIKNYEPNRWPAGDPPFYGDIDPYMFNWPGETKYYLIEHKDDPKVKSFFELGMGKRPAEELFDINKDPDELHNLAALPEYQKIKQELVAKLRNYLVATKDPRETNGNIQIWDTAAYFSEIDKTPKPSKEMQKRFKLDSSYNYLK
notes: as for B1
pH range of activity compared with the other enzyme ([3]; compared with 6-O-sulfatase): active over a broader range, especially above pH 7.0
activity remaining relative to the zero NaCl control ([4]; 1 M NaCl): less than 20%
